Assay: soluble on expression in E. coli; label from the status in PepcDB or PDB records

Sequence | soluble on expression in E. coli
MGSDKIHHHHHHMKLVCAQSDLSTNLSLVNRAVPSRPTHPVLANVLLQADAETNQVSLTAFDLSLGIRTSFNADVWQSGAIALPAKLLVDITSRLPEGEITLDDESATDGTATGEGLIVSLTPKTGKYQLRAMGAEEFPELPLIENTTAIYLTATSLIEGLRGSLFATSGDETKQVLTGVHLTVKQDTLEFAATDGHRLAVVETTNERPLEDNDQQLEVTVPARALRELERMLAHNAASEEPIALYLDQGQVIFAWQNQRLTSRTLEGQYPAYRQLIPRQFERQVTIERRQFLSTLERIAVLADQKNNIVKLTIDSTAQELTLSCEAQEMGSGRESMNAEIAGEDIEIAFNVKYLMEGLKALPSPEIQMHINQNLTPVIFTPLGGLKMTYLAMPVQLRN | not soluble
MGDDLDSLTDQLSSGFQVDPLALGEHPRYSQYKNLTKAAEQQAKRREETLERQKNGRFDTFMKLRNLAFDDVTSDEDDEQKIETTTAEKHTGKFKKYADKMMLSEWLVDIPESLSSDWTMVMAPVGKRTLVVASRGFTVAYNKGGREVSRFQSRLPGGNTRAKNQAWTILDCIYSNQTYYVLDLLSWNAHEYVESPYDFRQFMLKSKLEEAPELAKSTPGFRNIFSPIPSCPCSQDQMAELMKNEISFRLDGLLFYHNSVVYQPGQSPLVGWLKPWMLPEILNVPVPEKYKAESNGQSSSQFIESFNQKHKHQSKIDRSMEH | not soluble
MAAKPKLYYFNGRGRMESIRWLLAAAGVEFEEEFLETREQYEKMQKDGHLLFGQVPLVEIDGMMLTQTRAILSYLAAKYNLYGKDLKERVRIDMYADGTQDLMMMIAVAPFKTPKEKEESYDLILSRAKTRYFPVFEKILKDHGEAFLVGNQLSWADIQLLEAILMVEELSAPVLSDFPLLQAFKTRISNIPTIKKFLQPGSQRKPPPDGPYVEVVRIVLKF | soluble
MFDIGFSELLLVFVIGLIVLGPQRLPVAVKTVAGWIRALRSLATTVQNELTQELKLQEFQDSLKKVEKASLENLTPELKASMDELRQAAESMKRTYSANDPEQASDEAHTIHNPVVKGNETQHEGVTPAAAETQASAPEQKPEPVKANVPESTETASVATIDAEKKSAAPVVESSPSSSDKPLEHHHHHH | not soluble
MILSVTFSPSEVPLAGAIASISSIKIIAGAACLAFLKISLILFSLSPTHLLNTSGPLTAMKLASLSVATALAKRVLPVPGGPYNKTPLGGVIPSFLNALGYFSGHSTASLSSCFTSSNPPMSSQWTFGTSMRTSLKAEGSTIFKASLEHHHHHH | not soluble
MDPFDRPKNDNDPFEDALKRCHKILEKLDCPFVTGKEKDLDESDDMTENEDHDEMANEDDGIPSNEKKVETRKMDCTSGQLLAPKLPEKAESISSASESSEDSESVAILKYTVRTCYAIWKKRQKNSEIALKGLMIVLELCLSQPSARDDAFSALLETLGYNTVTFWKAVVPQIYNSDLSYATQYREALLFSLVLYDVNHSKNRLRELYAAVPGVRQSMLGIRAKQFGERYRHLQMKIARSRASSRMSSKMGSEENLPAMASMMNDVVFDEEPHTQSPLVDMSHDKQRVINVSNAPPVSISRKTSGSWEIKQGSGGLVACVDPVMSADKKNIWLSNLGVNMQEELKEHSTSTNSLGLPLIKQACAGEVFCVLERNEKKEELTPKQQAVESDMSLLSVLNTYNKHSYQLNPVVVNQDDYNTYYGGISNGLLWPALHNLPQYISPCFDDPELLREQWCAYVRVNYLFAINAARNSRAQDFIWIHDYHLMLCGQIMRSLESSLDIGFFIHIPFQPPANFMTKYKTVADPIMRALLRFTKVGFQTSRDRDTFVKLVAKHIKRTKIEYDSRLDRYTIEHDGWTCSLGVFPVSIKIADFVNIAKNPQTIIEAEEIKKQIMGRSADGGQLFFSVERFDYTKGISEKLRAWQRYFEKYPDRIGKDVLFQVAVTNRRSVDSYRQYQDDVLAVADLINQKFKSEDYPEWKPVIFETDGLPRTRLIAHYLAMDIGVVTPSKDGMNLVAKEMLVCNPTASLVLSTGAGTEVQLSNAQFYSEQEGKCYHRVEEISNTEAFADNFFAAATESKETRTKHGEKINQFLCVHDIDEWSDQFLDPKWTHEVISQCEVKQLGQFYGLMSRTAQVRRQIVECVLKGLPIRPHFRYSLENAKNSLESSCKSGTKLSLEADEESGEEKGFEITYDIHDELSEMEKDLAFLAFIQSDEYENAEEFIKTLGSFYEGGPVLFKNEVKQAAEMLQQGIHYNTFFTDRDGTLKSYACSYPTSVQPAYSAVIQAQFARRCATFCAIVTTAPLLHTGILEVATIPEGYYAYGASAGREWYLNPAQQFKDRSFSAIDLNLMNKVFDIIEELLERPEFRIFKWIGSGIQKHCGHITIAKQDVNGTIPSRKVIRLYEQLVKIVNDFDPNGTTLTMRESDLDFKIYVKAKLKGRIFNKGHGIRLVRERLKPNMSKGNCLVCGDNESDIPMLEECLKLAGSKVYTIWVTADTNLQEKVTQLCDRFSCSNIHFVSCPQVLLGAMAYATAHTLVDERNRKLDYYYDSDTPMDQEESSTLGASLGTSFGN | not soluble
MPTPAYIKIVGQTQGNITAGAFTADSVGNVFQQGHEDQILVQEIKHEVTTPTDPQSGQPSGQRVHKPFIFTSSLNKATPLMYQALATGEMLPTVEVSWYRTSSEGKQEHFFTTTLEDATIVSINTVLPHALDKDNENYTQLVEVSLAYRKITWAHDVANTEGSDDWRAPAA | not soluble
SETRGPQGAANPMDSSRSLGDLGPFPREVGRGAPLAPGARNPATAGASRSQGGGHEDRTADRALGPRAGEELDRESWVREKVLFLLHPERWLGTRGDPAREEVAGAEDLPHAGGEDHGEEPNYPSVFQREKRISGRRVAPPRDAADPPKYVLVRVEDYQVTQEVLQTSWAKGRMTTRTEEHFVTALTFRSSREGQPGERWGPAESRALQARTGASRVHAAGRRVSPSPGTWLEEIKL | soluble
MGSDKIHHHHHHVLNVNELVKTELHCHLDGSLSLGVIRQLAQMAKITIPAEDEALRKLVSVHGKVDSLMAYLKLFDFVRPLLQTATALELAAYDLVRQAASDKVIYIEVRFAPELSTDQDLTILEAVSAVLVGLNRGQEDFGVLAKLLVCGLKQTNTNQTKELFSAIADLAPKGLVGFDFAGNEADYPTEELRDIIQFTQSLGYPMTFHAGECGCVINVIQALELGIRRIGHGTALTRNPEAIQAFVNSGATLEMCLTSNLQTGAADSIEYFPYRELVEAGANITINTDNRTVSNTTLNREYQLFVEYFGTSKADFYRFNQNAIQASFASEGEKKVLLELLDQQY | not soluble
MRSMKVFISIGVVLSVVNCIFFDHGDSSDGSYSDSSGEGRGHHHKHGPRPPRPNRPPRPPPATPPPTTPAPSCPGGWSLIHRRRGPWCIQVFNGAAGLEGSNNACRAQGAVLSSVENAQERETIARLGLEKMLPTGWKYGTIRVGLRKNSQGAPWYNTDGSTDANNLEGVLWSPAEPRNGNWGGVQLNCATMWLWGGIFEGGRIHGQFFTNICLANNPNDRYRGYVCGKPA | not soluble
MSALEWYAHKSLGDGIFWIQERFYESGNRANIWLVRGSEQDVVIDTGLGLRSLPEYLYSSGLLQDREAKEDAARRPLLAVATHVHFDHSGGLYQFDRVAVHHAEAEALARGDNFETVTWLSDSEVVRAPSPGWRARQFRVQAVQPTLILQDGDVINLGDRQLTVMHMPGHSRGSICLHDKDRKILFSGDVVYDGSLIDWLPYSRISDYVGTCERLIELVDRGLVEKVLPGHFNTFGAERLFRLASNYISKAGICHKVSTFAMRSLASLALRVTNSRTSP | not soluble
VIADDFTGATDIASFLVENGMPTVQINDVPTGTQPEGCDAVVISLKTRSCPAQEAIKQSLAALVWLKKQGCQQVYFKYCSTFDSTAEGNIGPVTDALMVALDTSFTVISPALPVNGRTVYQGYLFVMNHLLAESGMRHHPINPMTDSYLPRLMEAQAQGRCGVIPAQTLDEGVAATRAALSRLQQEGYRYAVLDALNERHLEIQGEVLRDAPLVTGGSGLAMGLARQWAKHGVSQARSAGYPLSGRAVVLSGSCSQMTNQQVAFYRQHAPTRDVDVARCLSSETREAYAEALAQWVLSQDSELAPMISATASTQALAAIQQQYGATEASHAVEALFSLLAARLAEGGITRFIVAGGETSGVVTQSLGITGFHIGPCISPGVPWVNALHAPVSLALKSGNFGDES | not soluble
MSLQAANLRQSRSMTLGLIVTEIINPYFAELAMAVDQIAHDAGYTIFIGYSRDHADRQHEIISSMIERQVDGILLLPAPDTDPEKLAKQVNAAGVPVVLLARRFAGFDYVGSENVKGATILGDHLSALGCRSVAFLGGLTASSLAEREEGLRASLEPRGCDVWSVDEFRSPITPEGGVAAVGRLFDQGKLPDAIIAYNDAVAQGIYDEMRRRGLEPGRDLAVASFDDTRIAASQVPPMTSVAGFPQEIGAKGAEMLMTRLADGNEDIPTQLTLIQPQLKIRSSTATWRREGHHHHHH | soluble
MSDTLLLTVLLRHDQSKNLDEIQARMKAMDWWERFPGEGVEIVSWTVAMGLGQIVTLRLPPALLPRVNVELERSAWGVFRTECYPTYDFVPVRETIRERVRTGGQ | not soluble
MSLGQSAQLRSWLQAMPKGGDLHNHLSGSVYAEDYLQWASEDGACVQLDDLSLRAPPCVAGQVPARGLSTRDVALYGRVVDALSMRNHLASPSQPTGHGQFFSTFGKFDAVVRARVADTVAAVLEQAARDRVPYVEIIANPPQMDDAAQRMQALPWHGTDDAANLRELQDALPPLVQAAQRNLADLDAQVRHVLQCDQAQPRAACQVQYRYVPYVLRVLPAPQVFGQMALAHALVAAGGSRAVAVNIVAPEDNPVAVADYARHMAMFRFFAQRYPGVPLSLHAGELTLGLVPPAQLRSHIRQAVDAGARRIGHGVDLPYEDDAQELLQRMRRDQVAVEINLTSNDVILGVTGAAHPLAMYLRAGVPVVLSTDDAGVSRADMTHEYQRAVQEQGIEYPTLKQLARNGLTYSFLPGASLWSANGKAAQACATALQRETDDAGCQAFRQSSEKARLQWQLETDLAQYERMLMEQRKVQTEGHHHHHH | not soluble
MGSDKIHHHHHHMETTKLGNLKLYGAGHAAGGAYHNVSIKGEGIVGEGLSAVGCRIYGTGLFLGKAETERLRVLGESECKGDLTAGKINIYGTMKVSGSLQFDRFNLKGQTEIGGNMTGESCDVKGKLSVIGDCETEMFHVTGCVDVSGLLNSGEIKLGLSHDINHVQEIGGTTITVKRRASFFSRKKGKLIADVIEGDRVYLENTEAAVVRGKEVIIGPGCSIGTIEYEYKCECDPHSQIKEKTKL | not soluble
MGSDKIHHHHHHMNKEAIESLLIHVIGTDVIVNEVRPIGGGNTSRAFAVKSSQGNFFIKTNRAGLVDMFEKEVKNLELLRKVLPSNTPEVVGYGTIDHVSYFILKLIEPGRRVADFWSDFGRTLSELHRVTGNTFGLEYDNYIGSLPQSNKQNSNWVDFFVNERIWPQAKKAEKVLGTEIVGMISKLSDRLPDLLTQSRPTLLHGDLWSGNFTLNQAGTVCLVDPATYYGNREIEIAFTKLFGGFEDEFYAAYSEVLPLDKGFFDTRADIYNLYPLLVHVNLFGGWYVASVRETLKRFV | not soluble
MIDREQIVRIVSDYLSTGETFLVEVAIHPGNRILVELDSAQGVCIDECVALSRHIESQVDRDIEDYELEVGSTGLTSPLKVMRQWENCIDSELSVLLTNGMKETGRLITVAPEAIKLEVVRMVKPEGAKRKKPETQELTIVMADIKQAVRII | not soluble
ESSDHLRLVAWYIPVKNSKRTVVLAHGFAGNKGLMGAWAGMYHELGYNVLVPDSRASGASQGKAVGYGWLERRDDLQWAKTVVHKTATTQIVMSGISMGAAGMTMASGERQLPQIKAYVVDSPFTSADAIISYQAGQLYHLPAFPLVNVTSLITKLRAGYSFKEADAVAQIRKNHLPIMIISGTRDDFVPTSMGKTLYRNAHQPKSLWLVKGAGHTTAITQNYQRYKRHVTAFLEQYVQ | not soluble

— the DeepSol protein solubility set
